Test results: US20160137713A1 (HANALL BIOPHARMA, published 2016)

Key:
soluble human FcRn = biological target: T1, soluble human FcRn (human, UniProt P55899 24-297; P61769 21-119); test: SPR, shFcRn immobilised, pH 7.4
T1 construct: extracellular domain;mature; Non-covalent heterodimer secreted by 293 cells, purified on IgG Sepharose; also called shFcRn; soluble FcRn
Description: Measurement of the binding ability of antibody by SPR was performed by immobilizing shFcRn as a ligand onto a Proteon GLC chip (Bio-Rad) and measuring affinity.
The analysis of ligand and analyte was performed using a Proteon GLC chip, and the interaction was analyzed at a pH of 6.0 and a pH of 7.4. Immobilization of the ligand was activated by injecting a 1:1 mixture of 1×EDAC (EDC) and 1× Surfo-NHS for 5 minutes. shFcRn was diluted in 10 mM sodium acetate (pH 4.5) at a concentration of 25 μg/ml and added to the ligand at a flow rate of 30 μl/min for 5 minutes. […] The analyte antibody was allowed to flow on the immobilized chip at a flow rate of 30 μl/min. […] The association time of the analyte antibody was 240 seconds, and the dissociation time was 600 seconds. Regeneration of the chip was performed by injecting 10 mM glycine (pH 2.5) at a flow rate of 100 μl/min for 18 seconds. Based on sensorgrams resulting from six concentrations of the analyte, kinetics analysis was performed using Proteon XPR36 software.

[1] = biological target: T2, human FcRn on HEK293 cells (human, UniProt P55899 24-365; P61769 21-119); test: FACS on hFcRn-overexpressing HEK293 cells at pH 6.0, Alexa488 anti-human goat antibody; MFI relative to hIgG1
T2 construct: whole, on cells; also called hFcRn
Description: In stable HEK293 cells expressing human FcRn, the degrees of binding of antibody to FcRn at various pHs were analyzed using a FACS system. Specifically, 100,000 stable HEK293 cells were washed with PBS and centrifuged in a table top microcentrifuge at 4500 rpm for 5 minutes to obtain pellets. 1 μg of antibody was added to 100 μl of pH 6.0 or pH 7.4PBS/10 mM EDTA. The cell pellets were resuspended in 100 μl of the antibody solution and incubated on ice for 60 minutes. The cells were washed once with 150 μl of buffer having pH difference, and then pellets were obtained therefrom. Alexa488-labeled anti-human antibody goat antibody (1 mg/ml) was diluted at 1:20 in buffer having pH difference, and the pellets were resuspended in 100 μl of the buffer, and then cultured on ice for 60 minutes. The cells were washed once with 150 μl of buffer having pH difference, and pellets were obtained therefrom and resuspended in buffer having pH difference. The suspension was transferred into a tube for FACS analysis. These cells were analyzed by FACS using BD FACSDiva™ v6.1.3 software (BD Bioscience). The results of the analysis were expressed as Mean Fluorescence Intensity (MFI) (see FIG. 2).

T1 sequence (P55899 24-297, chain 1 of 2): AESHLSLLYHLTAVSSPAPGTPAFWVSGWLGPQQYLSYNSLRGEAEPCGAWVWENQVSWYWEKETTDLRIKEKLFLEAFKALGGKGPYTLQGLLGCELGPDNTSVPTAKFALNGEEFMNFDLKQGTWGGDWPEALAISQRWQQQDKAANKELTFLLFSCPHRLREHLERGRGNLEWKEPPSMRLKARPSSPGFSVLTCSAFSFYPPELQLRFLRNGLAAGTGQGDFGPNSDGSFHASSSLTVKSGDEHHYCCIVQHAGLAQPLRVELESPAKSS
T1 sequence (P61769 21-119, chain 2 of 2): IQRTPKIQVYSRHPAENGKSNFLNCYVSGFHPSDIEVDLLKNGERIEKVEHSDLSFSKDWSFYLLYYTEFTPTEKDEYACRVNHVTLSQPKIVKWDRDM
T2 sequence (P55899 24-365, chain 1 of 2): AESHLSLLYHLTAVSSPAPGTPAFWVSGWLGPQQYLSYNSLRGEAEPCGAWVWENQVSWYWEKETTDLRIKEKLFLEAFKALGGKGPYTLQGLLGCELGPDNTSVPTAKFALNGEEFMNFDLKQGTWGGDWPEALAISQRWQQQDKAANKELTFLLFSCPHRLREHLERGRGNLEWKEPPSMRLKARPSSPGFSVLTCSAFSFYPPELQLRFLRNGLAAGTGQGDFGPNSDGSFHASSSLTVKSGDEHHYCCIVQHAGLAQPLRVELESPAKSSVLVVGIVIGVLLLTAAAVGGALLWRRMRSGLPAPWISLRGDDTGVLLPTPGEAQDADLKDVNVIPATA
T2 sequence (P61769 21-119, chain 2 of 2): as the sequence (P61769 21-119, chain 2 of 2) above

B1: HL161-11H (antibody, V domains shown)
VH: QMQLVESGGGLVQPGRSLRLSCAASGFTFSSYAMHWVRQAPGKGLEWVAVISYDGSNKYYADSVKGRFTISRDNSKNTLYLQMNSLRSEDTAVYYCSRGSGGRDAFDVWGQGTMITVSS
VL: DIQMTQSPSTLSASVGDRVTITCRASQSISSRLAWYQQKPGKAPKLLIYKASSLETGVPSRFSGSGSGTEFTLTISSLQPDDFATYYCQQTNSFPLTFGGGTKVEIK
notes: Whole human IgG from pNATAB vectors
With B1 the koff (soluble human FcRn) was 0.00045 s⁻¹, the kon (soluble human FcRn) was 500000 M⁻¹ s⁻¹ and the “Relative MFI (Fold)” value [1] was 3.5 fold.
